Assay results reported in patent US10179909B2, “Non-natural amino acid tRNA synthetases for pyridyl tetrazine” (priority 2013, dated 2019).
Numbering of substitutions follows the chain as printed. Names and notes keep the numbering of the source.

B1: Clone 2A2: M. jannaschii TyrRS variant for Formula I: Y32L, L65V, H70A, F108W, Q109S, D158V, I159A, L162V (protein, listed as Methanococcus jannaschii)
chain: MDEFEMIKRNTSEIISEEELREVLKKDEKSALIGFEPSGKIHLGHYLQIKKMIDLQNAGFDIIIVLADLAAYLNQKGELDEIRKIGDYNKKVFEAMGLKAKYVYGSEWSLDKDYTLNVYRLALKTTLKRARRSMELIAREDENPKVAEVIYPIMQVNVAHYVGVDVAVGGMEQRKIHMLARELLPKKVVCIHNPVLTGLDGEGKMSSSKGNFIAVDDSPEEIRAKIKKAYCPAGVVEGNPIMEIAKYFLEYPLTIKRPEKFGGDLTVNSYEELESLFKNKELHPMDLKNAVAEELIKILEPIRKRL
modifications: wild-type (WT) tyrosyl tRNA synthetase (TyrRS), reference sequence
notes: M. jannaschii TyrRS variant for Formula I: Y32L, L65V, H70A, F108W, Q109S, D158V, I159A, L162V
B2: Clone 2A9: M. jannaschii TyrRS variant for Formula II: Y32G, L65V, H70A, Q109S, D158G, L162S (protein, listed as Methanococcus jannaschii)
chain: B1 chain with L32G, W108F, V158G, A159I, V162S
modifications: wild-type (WT) tyrosyl tRNA synthetase (TyrRS), reference sequence
notes: M. jannaschii TyrRS variant for Formula II: Y32G, L65V, H70A, Q109S, D158G, L162S

System: GFP (K49TAG) amber (TAG) codon / orthogonal CUA-encoding suppressor tRNA
Experiment: CFPS based GFP K49TAG amber suppression assay
Type: biochemical, E. coli
Conditions: for full-length GFP expression by suppression of the TAG codon: clone titrated into CFPS reactions in the absence or presence of 4 μM non-natural amino acid; for amber suppression efficiency (levels of GFP detected): in the presence of the pyridyl-amino tetrazine compound (Formula I for 2A2, Formula II for 2A9), cell-free protein synthesis, 30° C., 12 h; for amber suppression (levels of GFP detected) without non-natural amino acid: reactions lacking the non-natural amino acid and containing the common naturally occurring amino acids
Description: The RS variants described herein were used to incorporate the compound of Formula I or the compound Formula II into the reporter protein Superfolder GFP. GFP containing a TAG stop codon at position 49 (GFP (K49TAG)) was expressed in a cell-free protein synthesis reaction as described in Zawada et al., 2011, Biotechnol. Bioeng., 108(7)1570-1578 with the following modifications. The cell free extracts were prepared from an OmpT sensitive RF-1 attenuated strain that was also engineered to overexpress E. coli DsbC, and a similar RF-1 attenuated E. coli strain that was engineered to produce an orthogonal CUA-encoding tRNA for insertion of a non-natural amino acid at an amber stop codon. The cell free extracts were blended (at a ratio of 85:15), and then added to a premix containing all other components of a cell-free protein synthesis system except for DNA encoding GFP (K49TAG). The final concentration in the cell-free protein synthesis reaction was 30% cell extract, with or without 2 mM non-natural amino acid (either Formula I or Formula II), 4 μM, 2 μM, 1 μM or no nnAA-specific RS variant (e.g., variant clone 1A7, 2A2, 1B7, 1B8, 2A1, 2B7, 2B5, 2A5, 2B4, 2B3, or 2A9), 8 mM magnesium glutamate, 10 mM ammonium glutamate, 130 mM potassium glutamate, 35 mM sodium pyruvate, 1.2 mM AMP, 0.86 mM each of GMP, UMP, and CMP, 2 mM amino acids (except 0.5 mM for tyrosine and phenylalanine), 4 mM sodium oxalate, 1 mM putrescine, 1.5 mM spermidine, 15 mM potassium phosphate, 100 nM T7 RNAP, 10 μg/mL GFP (K49TAG) expression template plasmid. The cell-free synthesis reactions were initiated by the addition of the plasmid DNA encoding GFP (K49TAG). The reactions were incubated at 30° C. for 12 h on a shaker at 650 rpm. After 12 hours of expression at the end point GFP fluorescence signal was measured at excitation at 476 nm, emission at 510 nm on a SpectraMax M5 fluorescence plate reader.
Similarly, clone 2A9, specific for Formula II, was titrated into the GFP-based amber supression CFPS reactions in the absence or presence of 4 μM Formula II.

Molecule | GFP levels relative to the positive GFP control reaction (reaction containing the non-natural amino acid and its specific RS clone (2A2 for Formula I, 2A9 for Formula II), control GFP has no premature stop codon) | full-length GFP expression by suppression of the TAG codon | amber suppression efficiency (levels of GFP detected) | amber suppression (levels of GFP detected) without non-natural amino acid
Cc1nnc(NCc2ccc(C[C@H](N)C(=O)O)nc2)nn1 [Formula I, (S)-2-amino-3-(5-((6-methyl-1,2,4,5-tetrazin-3-ylamino)methyl)pyridin-2-yl)propanoic acid] | comparable |  |  | 
B1 |  | expressed only in the presence of the compound of Formula I | high amber suppression efficiencies | substantially no amber supression
B2 |  | expressed only in the presence of the compound of Formula II | high amber suppression efficiencies | substantially no amber supression
